Target: T1, active C1r (human, UniProt P00736)
T1 chain 1: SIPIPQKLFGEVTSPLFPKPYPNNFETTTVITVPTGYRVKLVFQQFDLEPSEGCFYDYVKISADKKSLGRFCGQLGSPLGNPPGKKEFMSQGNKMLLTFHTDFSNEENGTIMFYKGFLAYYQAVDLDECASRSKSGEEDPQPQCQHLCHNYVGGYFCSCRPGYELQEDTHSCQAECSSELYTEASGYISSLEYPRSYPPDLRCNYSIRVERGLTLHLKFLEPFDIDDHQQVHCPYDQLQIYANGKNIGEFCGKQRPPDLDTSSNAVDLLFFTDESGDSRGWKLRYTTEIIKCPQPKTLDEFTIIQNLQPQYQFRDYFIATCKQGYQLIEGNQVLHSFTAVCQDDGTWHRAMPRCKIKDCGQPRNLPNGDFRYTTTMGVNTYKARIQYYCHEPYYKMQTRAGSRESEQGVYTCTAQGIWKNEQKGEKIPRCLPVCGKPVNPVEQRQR
T1 chain 2: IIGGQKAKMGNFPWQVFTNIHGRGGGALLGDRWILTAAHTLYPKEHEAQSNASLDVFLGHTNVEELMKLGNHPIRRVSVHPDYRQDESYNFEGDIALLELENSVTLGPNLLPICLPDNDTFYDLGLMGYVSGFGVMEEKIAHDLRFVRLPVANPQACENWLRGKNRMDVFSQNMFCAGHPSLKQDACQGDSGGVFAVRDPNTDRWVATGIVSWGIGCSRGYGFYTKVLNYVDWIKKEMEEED
Assay: SPR

B1: FbpB-Δ5C (domain or fragment)
chain: GSTGSETRLDNQYKFNLNKTTNSVEQALKIAQQIKDDLDTIEFHRIKLSNHYGIRAEEHEKQTAKEELSKFSKDKLEADLKKLLCEIEKSLNAATILTTHNEYHYGGNLQSDLSAKTTLDTLKTEVSSLISKIQNSNNKDHQAYPTSYYNDYQSYQALRNPYSKLTLVK
modifications: activated two-chain form, cleaved between 463 and 464 (cleavage limits from UniProt chain features), heavy and light chains disulfide-linked; plasma-purified glycoprotein; native C1r forms a Ca-dependent-complex homodimer, but the paper does not state stoichiometry
- Kd: 2.1 nM

— paper PMC9186069 (2022)
